Data as given in patent US20200385459A1 (University of Texas, published 2020).
Residue numbers refer to the chain shown, from its start. “And” between values parts separate entries of the source, which are not always exact repeats. Equal entries are not always repeated. Blank lines part the entries; values can stand above or below the binder they belong to.

Legend:
[1] = target: T1, His-tagged recombinant human LRP10 protein, LRP10-516H (human) (UniProt Q7Z4F1); experiment: ELISA, coated LRP10, antibody at 0 ng/ml (background well)
T1 sequence (looked up): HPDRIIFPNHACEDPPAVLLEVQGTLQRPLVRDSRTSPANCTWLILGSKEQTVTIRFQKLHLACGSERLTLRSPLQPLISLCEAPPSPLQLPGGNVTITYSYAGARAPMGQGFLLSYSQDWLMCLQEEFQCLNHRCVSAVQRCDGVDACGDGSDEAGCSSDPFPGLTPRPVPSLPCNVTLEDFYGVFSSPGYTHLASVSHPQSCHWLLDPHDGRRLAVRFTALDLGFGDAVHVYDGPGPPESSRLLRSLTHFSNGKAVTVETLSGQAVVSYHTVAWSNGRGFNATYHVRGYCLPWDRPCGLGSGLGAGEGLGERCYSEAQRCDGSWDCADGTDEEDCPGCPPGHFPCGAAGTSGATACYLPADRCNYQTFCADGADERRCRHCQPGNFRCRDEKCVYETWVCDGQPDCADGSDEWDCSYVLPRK

[2] = target: T1, His-tagged recombinant human LRP10 protein, LRP10-516H (human); experiment: ELISA, coated LRP10, antibody at 1000 ng/ml
[3] = target: T1, His-tagged recombinant human LRP10 protein, LRP10-516H (human); experiment: ELISA, coated LRP10, antibody at 62.5 ng/ml
[4] = target: T1, His-tagged recombinant human LRP10 protein, LRP10-516H (human); experiment: ELISA, coated LRP10, antibody at 250 ng/ml
[5] = target: T1, His-tagged recombinant human LRP10 protein, LRP10-516H (human); experiment: ELISA, coated LRP10, antibody at 0.24 ng/ml
[6] = target: T1, His-tagged recombinant human LRP10 protein, LRP10-516H (human); experiment: ELISA, coated LRP10, antibody at 0.98 ng/ml
[7] = target: T1, His-tagged recombinant human LRP10 protein, LRP10-516H (human); experiment: ELISA, coated LRP10, antibody at 15.63 ng/ml
[8] = target: T1, His-tagged recombinant human LRP10 protein, LRP10-516H (human); experiment: ELISA, coated LRP10, antibody at 3.91 ng/ml
[9] = target: T2, His-tagged recombinant human LRP10 protein, LRP10-516H (human, UniProt Q7Z4F1 17-440); experiment: ELISA, coated LRP10, serial dilution of antibody
T2 construct: The ELISA protocol calls the coated protein 'LR10'; also called target protein LR10; target antigen; not shown: His tag
T2 sequence (looked up): T1 sequence (looked up)
Description: 1) Coat the target protein LR10 (1 μg/ml, 0.1 μg/well) in a certain coating buffer (0.1 M NaHCO₃, pH 9.6). Incubate overnight at 4° C. [0234] 2) Wash the wells 3 times with 300 μL washing buffer (0.1% PBST) per well. [0235] 3) Block the wells with 300 μL blocking buffer (3% BSA) for 1 h at 37° C. [0236] 4) Discard the blocking buffer and wash the plate 3 times with the washing buffer, slapping the plate face-down onto a clean section of paper towel each time. [0237] 5) Add 100 μL of a serial dilution of antibodies per well. Incubate at 37° C. for 1 h. [0238] 6) Wash 3 times with the washing buffer. Dilute HRP-goat anti-human IgG (1:4,000) in the blocking buffer (3% BSA). Add 100 μL of diluted conjugate per well and incubate at 37° C. for 1 h. […] 7) Wash 3 times with the washing buffer. Dissolve Tetramethylbenzidine (TMB) substrate (Sigma, USA) in […] citrate-phosphate buffer and add 1 μL/mL H₂O₂ to the solution. Add 100 μL of substrate solution per well and incubate at room temperature for 15 minutes. [0240] 8) Add 100 μL of 2 mol/L H₂SO₄ solution to stop the reaction. [0241] 9) Read plates using a microplate reader set at 490 nm.
For the 8 well-expressed antibodies, we tested their binding activities to the target antigen by ELISA (Table 7 and FIG. 11).

[10] = target: T3, mouse LRP10 (Lrp10) on C57BL/6 T cells (mouse (Mus musculus), UniProt Q7TQH7 18-713); experiment: cell-based or functional assay
T3 sequence (looked up): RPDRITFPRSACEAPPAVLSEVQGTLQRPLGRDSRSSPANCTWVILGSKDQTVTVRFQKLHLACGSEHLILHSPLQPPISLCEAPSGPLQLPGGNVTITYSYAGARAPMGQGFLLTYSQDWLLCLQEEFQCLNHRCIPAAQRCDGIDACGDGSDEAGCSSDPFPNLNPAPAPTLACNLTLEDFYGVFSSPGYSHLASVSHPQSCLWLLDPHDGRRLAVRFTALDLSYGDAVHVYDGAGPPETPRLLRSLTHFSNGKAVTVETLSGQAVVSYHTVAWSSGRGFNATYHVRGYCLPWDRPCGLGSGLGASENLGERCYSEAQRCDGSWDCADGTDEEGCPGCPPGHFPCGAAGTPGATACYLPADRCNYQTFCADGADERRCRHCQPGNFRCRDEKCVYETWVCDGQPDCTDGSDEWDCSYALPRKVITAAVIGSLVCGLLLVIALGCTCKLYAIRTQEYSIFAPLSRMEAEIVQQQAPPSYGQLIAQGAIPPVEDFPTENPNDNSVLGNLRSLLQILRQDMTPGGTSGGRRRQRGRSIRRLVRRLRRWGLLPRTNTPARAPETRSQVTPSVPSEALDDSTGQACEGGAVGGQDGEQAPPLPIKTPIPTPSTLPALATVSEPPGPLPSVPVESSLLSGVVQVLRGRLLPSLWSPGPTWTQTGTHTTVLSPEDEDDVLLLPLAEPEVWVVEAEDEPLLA

[11] = target: T2, His-tagged recombinant human LRP10 …; experiment: ELISA on coated LRP10

B1: Clone 6 (AB6) (antibody, human IgG1, V domains shown)
VH: EVQLLESGGGLVQPGGSLRLSCAASGFTFSSYAMSWVRQAPGKGLEWVSSIPSRGQATKYADSVKGRFTISRDNSKNTLYLQMNSLRAEDTAVYYCAKSRHTFDYWGQGTLVTVSS
VL: DIQMTQSPSSLSASVGDRVTITCRASQSISSYLNWYQQKPGKAPKLLIYDASLLQSGVPSRFSGSGSGTDFTLTISSLQPEDFATYYCQQTSAGPGTFGQGTKVEIK
ELISA signal (plate read at 490 nm) [1]: 0.0595 and 0.0594
ELISA signal (plate read at 490 nm) [2]: 0.289 and 0.349
ELISA signal (plate read at 490 nm) [3]: 0.09 and 0.0989
ELISA signal (plate read at 490 nm) [4]: 0.128 and 0.133
ELISA signal (plate read at 490 nm) [5]: 0.0606 and 0.0573
ELISA signal (plate read at 490 nm) [6]: 0.0588 and 0.0556
ELISA signal (plate read at 490 nm) [7]: 0.0656 and 0.0659
ELISA signal (plate read at 490 nm) [8]: 0.0615 and 0.0582

B3: Clone 3 (AB3) (antibody, human IgG1, V domains shown)
VH: B1 VH with S50Q, P52G, S53T, R54M, Q56R, A57P, K59T, R100G, H101K, T102K
VL: B1 VL with D50R, L53R, T91P, S92T, A93S, G94L, G96L
notes: Expressed as a full antibody in 293F cells, protein A purified; also called AB3 (L3 + H2); AB3: L3 + H2
EC50 [9]: 0.0349 µg/mL

B4: Clone 1 (AB1) (antibody, V domains shown)
VH: B1 VH with Y32Q, S53P, R54G, Q56P, A57N, R100Y, H101P, T102S
VL: B1 VL with D50N, L53D, T91S, A93R, G94T, G96T
notes: also called AB1 (L1 + H1); AB1: L1 + H1
EC50 [9]: 0.013 µg/mL

B6: Clone 2 (AB2) (antibody, human IgG1, V domains shown)
VH: B1 VH with Y32Q, S53P, R54G, Q56P, A57N, R100Y, H101P, T102S
VL: B1 VL with D50A, L53P, T91V, S92A, A93R, G94T, G96N
notes: Expressed as a full antibody in 293F cells, protein A purified; also called AB2 (L2 + H1); AB2: L2 + H1
EC50 [9]: 0.0148 µg/mL
migration rate of T cells in response to SDF-1, transwell [10]: ~2 fold higher than vehicle

Other lines, results leading:

EC50 [9]: 0.0357 µg/mL
migration rate of T cells in response to SDF-1, transwell [10]: ~2 fold higher than vehicle
B2: Clone 7 (AB7) (antibody, human IgG1, V domains shown)
VH: B1 VH with P52A, S53T, R54T, Q56N, A57T, K59Y, S99N, R100T, H101A
VL: B1 VL with D50A, L53T, T91N, S92D, A93Y, G94Y, G96T
notes: Expressed as a full antibody in 293F cells, protein A purified; also called AB7 (L7 + H6); AB7: L7 + H6

EC50 [9]: 0.0117 µg/mL
migration rate of T cells in response to SDF-1, transwell [10]: ~2 fold higher than vehicle
B5: Clone 8 (AB8) (antibody, human IgG1, V domains shown)
VH: B1 VH with P14L, Y32Q, S53P, R54G, Q56P, A57N, R100Y, H101P, T102S
VL: B1 VL with D50N, L53D, T91S, A93R, G94T, G96T
notes: Expressed as a full antibody in 293F cells, protein A purified; also called AB8 (L1 + H7); AB (L1 + H7)

binding result [11]: no binding
B7: Clone 9 (AB9) (antibody, human IgG1, V domains shown)
VH: B1 VH with P52Y, S53T, R54S, Q56A, K59T, R100Y, H101P, T102S
VL: B1 VL with D50N, L53D, T91S, A93R, G94T, G96T
notes: Expressed as a full antibody in 293F cells, protein A purified; also called AB9 (L1 + H8); AB9: L1 + H8
